Values of other authors, collected in patent US9421247B2, “Biodegradable nanoparticles as novel hemoglobin-based oxygen carriers and methods of using the same” (Vindico NanoBio Technology Inc., priority 2010, dated 2016).

Substance | adverse physiological effects on infusion/transfusion into animals
free hemoglobin: cell-free hemoglobin infused into animals | significant vasoconstriction and kidney damage
PolyHeme™: commercial acellular HBOC (Northfield Lab, Evanston, Ill., USA) | induce vasoconstriction
